Assay results taken from publication PMC9482650, “Quantitative fragmentomics allow affinity mapping of interactomes” (Nature Communications, 2022).

Molecular target: T1, MPDZ_5, O75970
T1 sequence (O75970 695-796, limits assumed, looked up): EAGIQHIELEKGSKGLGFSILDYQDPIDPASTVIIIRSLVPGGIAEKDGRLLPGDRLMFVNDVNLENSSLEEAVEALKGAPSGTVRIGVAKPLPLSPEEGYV
Experiment: holdup assay
Design: key: below the threshold = too weak to quantify, mostly under pKd 3.1 to 4
Conditions: plain residues with an end cap or a label only (N-terminal biotin on a linker: ado-ado)

Binder	pKd
TISFTQTSQF [SLC1A1, P43005]	below the threshold
NVYGIESVKI [GRIA2, P42262]	below the threshold

Molecular target: T2, MPP7, Q5T2T1
T2 sequence (Q5T2T1 134-230, limits assumed, looked up): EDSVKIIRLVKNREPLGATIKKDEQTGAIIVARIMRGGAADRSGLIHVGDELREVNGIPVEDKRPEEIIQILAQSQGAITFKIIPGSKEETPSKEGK
Experiment: holdup assay
Design: key: below the threshold = too weak to quantify, mostly under pKd 3.1 to 4
Conditions: plain residues with an end cap or a label only (N-terminal biotin on a linker: ado-ado)

Binder	pKd
TISFTQTSQF [SLC1A1, P43005]	below the threshold
NVYGIESVKI [GRIA2, P42262]	below the threshold

Molecular target: T3, ARHGAP21, Q5T5U3
T3 sequence (Q5T5U3 45-169, limits assumed, looked up): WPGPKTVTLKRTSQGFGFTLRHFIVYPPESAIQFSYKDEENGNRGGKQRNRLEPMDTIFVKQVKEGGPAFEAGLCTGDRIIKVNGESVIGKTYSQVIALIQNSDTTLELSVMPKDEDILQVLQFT
Experiment: holdup assay
Design: key: below the threshold = too weak to quantify, mostly under pKd 3.1 to 4
Conditions: plain residues with an end cap or a label only (N-terminal biotin on a linker: ado-ado)

Binder	pKd
TISFTQTSQF [SLC1A1, P43005]	below the threshold
NVYGIESVKI [GRIA2, P42262]	below the threshold

Molecular target: T4, MPDZ_10, O75970
T4 sequence (O75970 1624-1722, limits assumed, looked up): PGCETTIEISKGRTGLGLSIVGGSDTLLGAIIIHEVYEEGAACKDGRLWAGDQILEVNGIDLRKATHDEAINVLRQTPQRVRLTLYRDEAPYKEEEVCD
Experiment: holdup assay
Design: key: below the threshold = too weak to quantify, mostly under pKd 3.1 to 4
Conditions: plain residues with an end cap or a label only (N-terminal biotin on a linker: ado-ado)

Binder	pKd
TISFTQTSQF [SLC1A1, P43005]	below the threshold
NVYGIESVKI [GRIA2, P42262]	3.57

Molecular target: T5, PDZD2_2, O15018
T5 sequence (O15018 329-429, limits assumed, looked up): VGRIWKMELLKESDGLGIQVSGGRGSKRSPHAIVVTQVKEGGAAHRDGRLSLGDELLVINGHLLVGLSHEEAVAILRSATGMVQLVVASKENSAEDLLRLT
Experiment: holdup assay
Design: key: below the threshold = too weak to quantify, mostly under pKd 3.1 to 4
Conditions: plain residues with an end cap or a label only (N-terminal biotin on a linker: ado-ado)

Binder	pKd
TISFTQTSQF [SLC1A1, P43005]	below the threshold
NVYGIESVKI [GRIA2, P42262]	3.63

Molecular target: PARD3_3, Q8TEW0
Experiment: holdup assay
Design: key: below the threshold = too weak to quantify, mostly under pKd 3.1 to 4
Conditions: plain residues with an end cap or a label only (N-terminal biotin on a linker: ado-ado)

Chain of PARD3_3, Q8TEW0 (Q8TEW0 582-685): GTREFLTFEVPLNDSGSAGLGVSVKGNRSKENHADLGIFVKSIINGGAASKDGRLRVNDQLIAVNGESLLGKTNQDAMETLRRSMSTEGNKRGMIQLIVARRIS

Binder	pKd
TISFTQTSQF [SLC1A1, P43005]	below the threshold
NVYGIESVKI [GRIA2, P42262]	3.78

Molecular target: T6, APBA1_1, Q02410
T6 sequence (Q02410 651-752, limits assumed, looked up): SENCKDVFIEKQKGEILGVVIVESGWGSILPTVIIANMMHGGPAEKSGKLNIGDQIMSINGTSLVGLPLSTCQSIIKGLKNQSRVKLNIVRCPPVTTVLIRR
Experiment: holdup assay
Design: key: below the threshold = too weak to quantify, mostly under pKd 3.1 to 4
Conditions: plain residues with an end cap or a label only (N-terminal biotin on a linker: ado-ado)

Binder	pKd
TISFTQTSQF [SLC1A1, P43005]	below the threshold
NVYGIESVKI [GRIA2, P42262]	3.52

Molecular target: T7, NHERF3_1, Q5T2W1
T7 sequence (Q5T2W1 4-100, limits assumed, looked up): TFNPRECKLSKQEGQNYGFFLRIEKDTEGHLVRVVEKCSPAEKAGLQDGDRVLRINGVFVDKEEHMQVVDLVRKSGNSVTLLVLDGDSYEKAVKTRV
Experiment: holdup assay
Design: key: below the threshold = too weak to quantify, mostly under pKd 3.1 to 4
Conditions: plain residues with an end cap or a label only (N-terminal biotin on a linker: ado-ado)

Binder	pKd
TISFTQTSQF [SLC1A1, P43005]	4.73
NVYGIESVKI [GRIA2, P42262]	below the threshold

Molecular target: T8, TX1BP3, O14907
T8 sequence (O14907 10-122, limits assumed, looked up): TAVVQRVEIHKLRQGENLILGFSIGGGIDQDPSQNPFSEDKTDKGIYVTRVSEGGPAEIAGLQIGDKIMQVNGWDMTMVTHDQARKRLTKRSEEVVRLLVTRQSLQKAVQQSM
Experiment: holdup assay
Design: key: below the threshold = too weak to quantify, mostly under pKd 3.1 to 4
Conditions: plain residues with an end cap or a label only (N-terminal biotin on a linker: ado-ado)

Binder	pKd
TISFTQTSQF [SLC1A1, P43005]	below the threshold
NVYGIESVKI [GRIA2, P42262]	below the threshold

Molecular target: MAST2, Q6P0Q8
Experiment: holdup assay
Design: key: below the threshold = too weak to quantify, mostly under pKd 3.1 to 4
Conditions: plain residues with an end cap or a label only (N-terminal biotin on a linker: ado-ado)

Chain of MAST2, Q6P0Q8 (Q6P0Q8 1099-1202): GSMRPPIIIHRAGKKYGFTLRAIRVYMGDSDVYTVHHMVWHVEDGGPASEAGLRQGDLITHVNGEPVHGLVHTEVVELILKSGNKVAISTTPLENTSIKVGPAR

Binder	pKd
TISFTQTSQF [SLC1A1, P43005]	4.89
NVYGIESVKI [GRIA2, P42262]	4.35

Molecular target: DLG4_1, P78352
Experiment: holdup assay
Design: key: below the threshold = too weak to quantify, mostly under pKd 3.1 to 4
Conditions: plain residues with an end cap or a label only (N-terminal biotin on a linker: ado-ado)

Chain of DLG4_1, P78352 (P78352 62-152): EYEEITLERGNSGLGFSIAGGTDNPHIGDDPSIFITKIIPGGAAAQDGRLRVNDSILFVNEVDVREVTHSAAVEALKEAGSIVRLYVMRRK

Binder	pKd
TISFTQTSQF [SLC1A1, P43005]	below the threshold
NVYGIESVKI [GRIA2, P42262]	below the threshold

Molecular target: PICK1, Q9NRD5
Experiment: holdup assay
Design: key: below the threshold = too weak to quantify, mostly under pKd 3.1 to 4
Conditions: plain residues with an end cap or a label only (N-terminal biotin on a linker: ado-ado)

Chain of PICK1, Q9NRD5 (Q9NRD5 17-115): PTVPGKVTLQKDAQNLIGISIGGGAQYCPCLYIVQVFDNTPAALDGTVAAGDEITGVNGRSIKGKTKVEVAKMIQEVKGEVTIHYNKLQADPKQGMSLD

Binder	pKd
TISFTQTSQF [SLC1A1, P43005]	below the threshold
NVYGIESVKI [GRIA2, P42262]	below the threshold

Molecular target: Inadl_4, Q8NI35
Experiment: holdup assay
Design: key: below the threshold = too weak to quantify, mostly under pKd 3.1 to 4
Conditions: plain residues with an end cap or a label only (N-terminal biotin on a linker: ado-ado)

Chain of Inadl_4, Q8NI35 (Q8NI35 547-651): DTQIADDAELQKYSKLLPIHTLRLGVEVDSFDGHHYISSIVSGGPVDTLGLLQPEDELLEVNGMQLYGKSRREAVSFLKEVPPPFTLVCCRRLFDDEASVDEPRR

Binder	pKd
TISFTQTSQF [SLC1A1, P43005]	below the threshold
NVYGIESVKI [GRIA2, P42262]	below the threshold

Molecular target: GRIP2_3, Q9C0E4
Experiment: holdup assay
Design: key: below the threshold = too weak to quantify, mostly under pKd 3.1 to 4
Conditions: plain residues with an end cap or a label only (N-terminal biotin on a linker: ado-ado)

Chain of GRIP2_3, Q9C0E4 (Q9C0E4 238-339): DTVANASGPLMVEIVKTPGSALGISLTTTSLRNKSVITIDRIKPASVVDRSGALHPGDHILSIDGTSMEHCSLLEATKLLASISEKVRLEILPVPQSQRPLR

Binder	pKd
TISFTQTSQF [SLC1A1, P43005]	below the threshold
NVYGIESVKI [GRIA2, P42262]	below the threshold

Molecular target: MAGI2_3, Q86UL8
Experiment: holdup assay
Design: key: below the threshold = too weak to quantify, mostly under pKd 3.1 to 4
Conditions: plain residues with an end cap or a label only (N-terminal biotin on a linker: ado-ado)

Chain of MAGI2_3, Q86UL8 (Q86UL8 600-682): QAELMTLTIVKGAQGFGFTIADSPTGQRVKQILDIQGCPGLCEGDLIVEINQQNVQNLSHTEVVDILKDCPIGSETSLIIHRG

Binder	pKd
TISFTQTSQF [SLC1A1, P43005]	below the threshold
NVYGIESVKI [GRIA2, P42262]	below the threshold

Molecular target: NOS1, P29475
Experiment: holdup assay
Design: key: below the threshold = too weak to quantify, mostly under pKd 3.1 to 4
Conditions: plain residues with an end cap or a label only (N-terminal biotin on a linker: ado-ado)

Chain of NOS1, P29475 (P29475 9-101): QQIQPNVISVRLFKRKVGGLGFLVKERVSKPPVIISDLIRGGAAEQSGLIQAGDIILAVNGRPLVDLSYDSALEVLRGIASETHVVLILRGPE

Binder	pKd
TISFTQTSQF [SLC1A1, P43005]	3.53
NVYGIESVKI [GRIA2, P42262]	3.71

Molecular target: LDB3, O75112
Experiment: holdup assay
Design: key: below the threshold = too weak to quantify, mostly under pKd 3.1 to 4
Conditions: plain residues with an end cap or a label only (N-terminal biotin on a linker: ado-ado)

Chain of LDB3, O75112 (O75112 1-94): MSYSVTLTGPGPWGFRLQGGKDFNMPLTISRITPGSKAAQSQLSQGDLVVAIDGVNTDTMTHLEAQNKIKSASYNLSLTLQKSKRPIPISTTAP

Binder	pKd
TISFTQTSQF [SLC1A1, P43005]	3.58
NVYGIESVKI [GRIA2, P42262]	below the threshold

Molecular target: SCRIB_2, Q14160
Experiment: holdup assay
Design: key: below the threshold = too weak to quantify, mostly under pKd 3.1 to 4
Conditions: plain residues with an end cap or a label only (N-terminal biotin on a linker: ado-ado)

Chain of SCRIB_2, Q14160 (Q14160 857-960): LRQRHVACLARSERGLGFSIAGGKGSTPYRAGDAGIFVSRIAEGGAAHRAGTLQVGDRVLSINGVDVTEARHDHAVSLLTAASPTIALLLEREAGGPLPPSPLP

Binder	pKd
TISFTQTSQF [SLC1A1, P43005]	below the threshold
NVYGIESVKI [GRIA2, P42262]	3.49

Molecular target: NHERF4_2, Q86UT5
Experiment: holdup assay
Design: key: below the threshold = too weak to quantify, mostly under pKd 3.1 to 4
Conditions: plain residues with an end cap or a label only (N-terminal biotin on a linker: ado-ado)

Chain of NHERF4_2, Q86UT5 (Q86UT5 220-308): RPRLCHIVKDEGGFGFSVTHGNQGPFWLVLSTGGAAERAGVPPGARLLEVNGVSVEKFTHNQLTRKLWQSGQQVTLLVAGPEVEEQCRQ

Binder	pKd
TISFTQTSQF [SLC1A1, P43005]	below the threshold
NVYGIESVKI [GRIA2, P42262]	below the threshold

Molecular target: NHERF2_2, Q15599
Experiment: holdup assay
Design: key: below the threshold = too weak to quantify, mostly under pKd 3.1 to 4
Conditions: plain residues with an end cap or a label only (N-terminal biotin on a linker: ado-ado)

Chain of NHERF2_2, Q15599 (Q15599 142-238): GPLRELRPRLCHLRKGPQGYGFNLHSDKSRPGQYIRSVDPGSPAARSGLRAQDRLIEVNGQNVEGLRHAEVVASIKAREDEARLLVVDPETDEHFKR

Binder	pKd
TISFTQTSQF [SLC1A1, P43005]	4.42
NVYGIESVKI [GRIA2, P42262]	3.71

Molecular target: MAGI1_1, Q96QZ7
Experiment: holdup assay
Design: key: below the threshold = too weak to quantify, mostly under pKd 3.1 to 4
Conditions: plain residues with an end cap or a label only (N-terminal biotin on a linker: ado-ado)

Chain of MAGI1_1, Q96QZ7 (Q96QZ7 1-106): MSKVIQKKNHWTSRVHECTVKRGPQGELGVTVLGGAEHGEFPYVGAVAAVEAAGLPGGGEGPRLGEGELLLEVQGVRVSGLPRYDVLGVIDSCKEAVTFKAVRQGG

Binder	pKd
TISFTQTSQF [SLC1A1, P43005]	below the threshold
NVYGIESVKI [GRIA2, P42262]	3.59

Molecular target: GRIP2_5, Q9C0E4
Experiment: holdup assay
Design: key: below the threshold = too weak to quantify, mostly under pKd 3.1 to 4
Conditions: plain residues with an end cap or a label only (N-terminal biotin on a linker: ado-ado)

Chain of GRIP2_5, Q9C0E4 (Q9C0E4 544-642): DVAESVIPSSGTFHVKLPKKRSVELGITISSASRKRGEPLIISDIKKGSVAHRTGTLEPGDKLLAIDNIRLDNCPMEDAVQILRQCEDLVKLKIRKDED

Binder	pKd
TISFTQTSQF [SLC1A1, P43005]	below the threshold
NVYGIESVKI [GRIA2, P42262]	below the threshold

Molecular target: IL16_1, Q14005
Experiment: holdup assay
Design: key: below the threshold = too weak to quantify, mostly under pKd 3.1 to 4
Conditions: plain residues with an end cap or a label only (N-terminal biotin on a linker: ado-ado)

Chain of IL16_1, Q14005 (Q14005 210-306): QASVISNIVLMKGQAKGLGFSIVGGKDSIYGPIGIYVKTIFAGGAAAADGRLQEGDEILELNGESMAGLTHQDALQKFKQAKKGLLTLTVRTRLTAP

Binder	pKd
TISFTQTSQF [SLC1A1, P43005]	below the threshold
NVYGIESVKI [GRIA2, P42262]	below the threshold

Molecular target: NHERF4_4, Q86UT5
Experiment: holdup assay
Design: key: below the threshold = too weak to quantify, mostly under pKd 3.1 to 4
Conditions: plain residues with an end cap or a label only (N-terminal biotin on a linker: ado-ado)

Chain of NHERF4_4, Q86UT5 (Q86UT5 464-550): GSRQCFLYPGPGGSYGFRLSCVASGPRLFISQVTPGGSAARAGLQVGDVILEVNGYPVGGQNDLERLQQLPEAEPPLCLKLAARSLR

Binder	pKd
TISFTQTSQF [SLC1A1, P43005]	below the threshold
NVYGIESVKI [GRIA2, P42262]	below the threshold

Molecular target: T9, APBA1_2, Q02410
T9 sequence (Q02410 742-832, limits assumed, looked up): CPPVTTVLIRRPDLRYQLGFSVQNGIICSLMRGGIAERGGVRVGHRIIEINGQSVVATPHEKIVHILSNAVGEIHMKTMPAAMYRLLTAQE
Experiment: holdup assay
Design: key: below the threshold = too weak to quantify, mostly under pKd 3.1 to 4
Conditions: plain residues with an end cap or a label only (N-terminal biotin on a linker: ado-ado)

Binder	pKd
TISFTQTSQF [SLC1A1, P43005]	below the threshold
NVYGIESVKI [GRIA2, P42262]	3.68

Molecular target: GRID2IP_2, A4D2P6
Experiment: holdup assay
Design: key: below the threshold = too weak to quantify, mostly under pKd 3.1 to 4
Conditions: plain residues with an end cap or a label only (N-terminal biotin on a linker: ado-ado)

Chain of GRID2IP_2, A4D2P6 (A4D2P6 272-370): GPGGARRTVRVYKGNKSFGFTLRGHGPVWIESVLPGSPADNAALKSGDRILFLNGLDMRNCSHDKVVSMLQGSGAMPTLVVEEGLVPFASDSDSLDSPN

Binder	pKd
TISFTQTSQF [SLC1A1, P43005]	below the threshold
NVYGIESVKI [GRIA2, P42262]	below the threshold

Molecular target: T10, DLG3_3, Q92796
T10 sequence (Q92796 374-475, limits assumed, looked up): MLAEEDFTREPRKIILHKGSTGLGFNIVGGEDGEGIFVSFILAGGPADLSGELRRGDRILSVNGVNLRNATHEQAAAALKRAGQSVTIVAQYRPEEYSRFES
Experiment: holdup assay
Design: key: below the threshold = too weak to quantify, mostly under pKd 3.1 to 4
Conditions: plain residues with an end cap or a label only (N-terminal biotin on a linker: ado-ado)

Binder	pKd
TISFTQTSQF [SLC1A1, P43005]	below the threshold
NVYGIESVKI [GRIA2, P42262]	below the threshold
